The Human Domainome abundance scans (Beltran et al. 2025)
± gives the uncertainty stated by the source.

B1: FERM and PDZ domain-containing protein 4, residues 75 to 154; numbered along this chain, Q14CM0 (parent)
chain: APRKVEMRRDPVLGFGFVAGSEKPVVVRSVTPGGPSEGKLIPGDQIVMINDEPVSAAPRERVIDLVRSCKESILLTVIQP

Variants of: B1
Experiment: abundance fitness (aPCA) (normalised: wild type 0, dead -1); higher = more abundant; growth selection in yeast, the domain comes from the species named
Details: Homo sapiens

Row | Variant | abundance fitness
1 | P53Y | -0.078 ± 0.028
2 | L65C | -0.158 ± 0.034
3 | L65F | -0.109 ± 0.041
4 | L65K | -0.022 ± 0.029
5 | V54L | -0.207 ± 0.025
6 | S21K | -0.009 ± 0.033
7 | V47H | -0.06 ± 0.043
8 | M7L | 0.04 ± 0.022
9 | Q45N | -0.126 ± 0.027
10 | K4L | -0.068 ± 0.31
11 | K4R | 0.114 ± 0.17
12 | R61T | -0.037 ± 0.03
13 | R61M | -0.059 ± 0.032
14 | I63Y | -0.087 ± 0.043
15 | G38N | -0.078 ± 0.047
16 | G38V | -0.526 ± 0.026
17 | G38F | -0.096 ± 0.041
18 | F17N | -0.923 ± 0.098
19 | L13W | -0.046 ± 0.084
20 | L13S | -0.013 ± 0.094
21 | S68Q | -0.001 ± 0.026
22 | R67V | -0.079 ± 0.021
23 | R67M | -0.064 ± 0.025
24 | D44N | -0.418 ± 0.041
25 | D44Y | -0.697 ± 0.052

Row | Variant | abundance fitness
26 | P80D | -0.28 ± 0.11
27 | P80L | -0.387 ± 0.042
28 | M48P | -0.917 ± 0.05
29 | M48S | 0.008 ± 0.022
30 | M48N | -0.095 ± 0.032
31 | R8Q | 0.018 ± 0.043
32 | P2K | -0.051 ± 0.042
33 | F15K | -0.905 ± 0.067
34 | F15V | -0.815 ± 0.037
35 | F15D | -0.781 ± 0.063
36 | K39S | -0.119 ± 0.024
37 | G16P | -0.977 ± 0.063
38 | G43L | -0.284 ± 0.024
39 | V12W | -0.14 ± 0.038
40 | V66Y | -0.382 ± 0.041
41 | S72N | -0.028 ± 0.028
42 | S72R | -0.019 ± 0.021
43 | S72W | -0.234 ± 0.029
44 | S72M | -0.11 ± 0.028
45 | S36E | -0.866 ± 0.05
46 | S36F | -0.742 ± 0.067
47 | V26D | -0.135 ± 0.039
48 | V26E | -0.036 ± 0.026
49 | V26Q | -0.011 ± 0.03
50 | R3Q | -0.243 ± 0.032

Row | Variant | abundance fitness
51 | R3E | -0.517 ± 0.032
52 | R3P | -0.937 ± 0.056
53 | P11M | -0.148 ± 0.031
54 | G20E | 0.01 ± 0.027
55 | G20C | -0.094 ± 0.033
56 | L40D | -0.965 ± 0.079
57 | L40P | -0.928 ± 0.059
58 | L40R | -0.978 ± 0.035
59 | P58Q | -0.091 ± 0.029
60 | P58H | -0.09 ± 0.035
61 | L74V | 0.012 ± 0.031
62 | L74F | 0.016 ± 0.062
63 | L74E | 0.005 ± 0.034
64 | V25M | 0.157 ± 0.046
65 | E22L | -0.315 ± 0.028
66 | E22Y | -0.012 ± 0.044
67 | E22T | -0.156 ± 0.034
68 | R9E | -0.382 ± 0.03
69 | R9G | -0.402 ± 0.024
70 | V62Y | -0.248 ± 0.03
71 | K70M | -0.17 ± 0.029
72 | K70W | -0.323 ± 0.034
73 | T76H | -0.05 ± 0.062
74 | T76C | -0.088 ± 0.047
75 | T76R | -0.058 ± 0.029

Row | Variant | abundance fitness
76 | G33S | -0.088 ± 0.025
77 | G33R | -0.104 ± 0.022
78 | I46V | -0.014 ± 0.098
79 | E37C | -0.046 ± 0.033
80 | E37K | -0.176 ± 0.033
81 | E37Y | -0.044 ± 0.041
82 | L75I | -0.118 ± 0.066
83 | G34S | -0.001 ± 0.025
84 | D51T | -0.079 ± 0.028
85 | Q79C | 0.012 ± 0.028
86 | Q79H | -0.027 ± 0.032
87 | Q79I | -0.425 ± 0.039
88 | R59W | -0.025 ± 0.024
89 | R59S | -0.06 ± 0.023
90 | A19Y | -0.081 ± 0.043
91 | N50S | -0.185 ± 0.024
92 | V5N | -0.778 ± 0.069
93 | V5F | -0.085 ± 0.036
94 | V5E | -0.192 ± 0.029
95 | A57W | 0.016 ± 0.024
96 | C69S | -0.025 ± 0.021
97 | E71K | 0 ± 0.034
98 | E71T | -0.052 ± 0.028
99 | S29A | -0.074 ± 0.024
100 | S29I | -0.221 ± 0.047

Row | Variant | abundance fitness
101 | S29H | -0.139 ± 0.039
102 | S29P | -0.826 ± 0.044
103 | E60P | -0.077 ± 0.029
104 | E60K | -0.015 ± 0.029
105 | V30H | -0.967 ± 0.1
106 | V30D | -0.804 ± 0.065
107 | V77H | -0.681 ± 0.056
108 | V77I | -0.098 ± 0.032
109 | I73R | -0.669 ± 0.036
110 | D64F | -0.354 ± 0.031
111 | D64Y | -0.252 ± 0.031
112 | D64H | -0.045 ± 0.028
113 | G14K | -0.247 ± 0.04
114 | I49A | -0.581 ± 0.03
115 | I49Y | -0.855 ± 0.076
116 | I49L | -0.111 ± 0.023
117 | P24G | -0.329 ± 0.022
118 | P24D | -0.433 ± 0.05
119 | P24C | -0.51 ± 0.045
120 | T31C | -0.108 ± 0.033
121 | T31G | -0.222 ± 0.029
122 | T31I | -0.175 ± 0.03
123 | V18T | -0.092 ± 0.028
